Earlier results in publication PMC2688729.

Molecular target: thrombomodulin (Homo sapiens) (UniProt P07204)

Kd: < 1 nM
Substance: thrombin (from UniProt P00734)
